# Read-outs that look alike come from different tables or passages of the source.
# Experiments:
# [1] = target: T1, full-length human PD-L1 on K562 cells (human, UniProt Q9NZQ7 19-290); test: FACS, PD-L1/K562 cells
# T1 construct: also called PD-L1/K562; cell surface human PD-L1
# Description: (§1) Cells were spun down at 1200 rpm for 5 minutes at 4° C. to remove primary antibodies. Cells were then washed once with 200 μL of full medium per well. […] Samples were spun down at 1200 rpm for 5 minutes at 4° C. and washed twice with 200 μL of 1×PBS per well. Samples were reconstituted in 200 μL of 1×PBS and were read on Attune NxT cytometer.
# human PD-L1-Fc [2] = target: T2, human PD-L1-Fc (human, UniProt Q9NZQ7 19-238); test: ELISA, coated PD-L1-Fc, anti-FLAG HRP
# T2 construct: also called recombinant PD-L1-Fc fusion protein
# Description: (§2) The plate was incubated overnight at 4° C. followed by blocking with 80 μL of superblock per well for 1 hour. […] In between each step, the plate was washed 3 times with 1×PBST in a plate washer. The plate was then developed with 20 μL of TMB substrate for 5 min and stopped by adding 20 μL of 2N sulfuric acid. The plate was read at OD450 nm Biotek plate reader and then plotted in Prism 8.1 software.
# [3] = target: PD-L1 on PD-L1 aAPC/CHOK1 cells (Promega J1250); test: cell-based or functional assay
# [4] = target: T3, PD-L1 biotinylated (PD-1/PD-L1 TR-FRET assay kit, BPS 72038) (Homo sapiens (Human), UniProt Q9NZQ7 19-238, biotinylated; site not stated); test: HTRF competition, competitor PD-1-Eu
# T3 construct: Kit reagent
# Description: (§3) Briefly, 1× Immuno buffer 1 was made. […] For each well in 384-well plate, serial diluted scFvs and regents were added according to manufacturer's recommended volume. Samples were incubated at room temperature for 1.5 hours then the fluorescent intensity was read with Biotek Neo2 plate reader using manufacture's instrument setting for the assay.
# [5] = target: T1, full-length human PD-L1 on K562 cells; test: FACS, PD-L1/K562 cells; remark: listed apart in the source
# Description: as §1
# (§4) The production, the binding, and all of the characterization assays for selected affinity matured scFv clones were performed as described above.
# [6] = target: PD-L1 on PD-L1 aAPC/CHOK1 cells (Promega J1250); test: cell-based or functional assay; remark: listed apart in the source
# human PD-L1-Fc [7] = target: T2, human PD-L1-Fc; test: SPR, PD-L1-Fc captured, scFv analyte
# Description: The assay was run with Biacore T200 control software version 2.0. Anti-human Fc antibody was immobilized on flow cell 1 and 2 of CM5 sensor chip. […] The flow cells were then regenerated with antibody regeneration buffer (GE Healthcare) for 30 seconds at flow rate of 30 μl/min.
# as §4
# human PD-L1-Fc [8] = target: T2, human PD-L1-Fc; test: ELISA, coated PD-L1-Fc, anti-FLAG HRP; remark: listed apart in the source
# Description: as §2, §4
# [9] = target: T3, PD-L1 biotinylated (PD-1/PD-L1 TR-FRET …); test: HTRF PD-1/PD-L1 competition (PD-1-Eu and biotinylated PD-L1), % activity; blocked ligand PD-1-Eu
# Description: as §3, §4
EC50 [1],EC50 (human PD-L1-Fc [2]),Jurkat NFAT reporter assay EC50 [3],IC50 [4],Binder,other results
35.9 nM,158 nM,,,"2018EP170-E06 scFv (scFv, V domains shown) VH: EVQLVQSGAEVKKPGSSVKVSCKASGGTFSSYAISWVRQAPGQGLEWMGGIIPIFGTANYAQKFQGRVTITADESTSTAYMELSSLRSEDTAVYYCARDSRWGPAPHAFDIWGQGTMVTVSS VL: QQSVLTQPASVSGSPGQSITISCTGTSSDIGSYNLVSWYQNHPGKAPKLILYEITKRPSGVSSRFSGSKSGNAASLTISGLQAEDEAEYFCCSYAGLSVFFVFGGGTKL",
10.8 nM,8.1 nM,400 nM,76.8 nM,"2018EP280-E01 scFv (scFv, V domains shown, not shown: scFv linker and domain order of the library scFv) VH: EVQLVESGGGLVKPGGSLRLSCAASGLTFSNAWMSWVRQAPGKGLEWVGRIKSKTDGGTTEYAAPVKGRFTISRDDSKNTLYLQMSSLKTEDTAVYYCTIVYYYDSSGPVFFQHWGQGTLVTVSS VL: QSVLTQPPSASATPGQRVTISCSGSDSNIATNYVYWYQQFPGTAPKLLIYRNHQRPSGVPDRFSGSRSGTSASLAISGLRSEDEADYYCATWDDSVNSWVFGGGTKLTVL",
,1.16 nM,,,"2018EP161-G08 scFv (scFv, V domains shown) VH: not shown VL: VIWMTQSPSSLSASLGDRVTITCRASQSVSTYINWYQQKSGKGPKLLIFNASTLQSGVPSRFSGSGSGTDFTLTITSLQPDDSATYYCQQSYRVPLSFGGGTKVEIR",
,,,,"2019EP69-F03 scFv (scFv, not shown: small tags and cut ends) scFv: QVQLVQSGAEVKKPGSSVKVSCKASGGTFSSYAISWVRQAPGQGLEWMGGIIPIFGTANYAQKFQGRVTITADESTSTAYMELSSLRSEDTAVYYCARDKWYGSAWRGDYWGQGTLVTVSSGGGGSGGGGSGGGGSQSVLTQPPSASGTPGQRVTISCSGSYSNIGSNFVNWYQQLPGTAPKLLIHFNNQRPSGVPDRFSGSRSGTSASLAISGLQSEDEADYFCSTWDDSLKGPIFGGGTKLTVL",EC50 [5]: 0.115 nM; Jurkat NFAT reporter assay EC50 [6]: 123 nM; Kd (human PD-L1-Fc [7]): 0.0797 nM; koff (human PD-L1-Fc [7]): 9.87e-05 s⁻¹; kon (human PD-L1-Fc [7]): 1.24e+06 M⁻¹ s⁻¹; EC50 (human PD-L1-Fc [8]): 0.696 nM; IC50 (read off the curve) [9]: ~100 nM
5.51 nM,,133 nM,38.5 nM,"2018EP280-E04 scFv (scFv, V domains shown, not shown: scFv linker and domain order of the library scFv) VH: QVQLQQWGAGLLKPSETLSLTCAVYGGSFSGYYWSWIRQPPGKGLEWIGEINHIGSTNYNPSLKSRVTISVDTSNNQFSLKLSSVTAADTAVYYCARGRRLRYFDWAAYNWFDPWGQGTLVTVSS VL: QSALTQDPAVSVALGQTVRISCQGDSLRSHYASWYQQKPGQAPVVVVYDNSDRPSGIPDRFSGSNSGNTATLTISRVEVGDEADYYCQVWDSSSDHYVFGTGTKVTVL",

# Source: US20250340646A1 (ELPIS BIOPHARMACEUTICALS, published 2025)
